Positions count from the first letter of the chain named. One block for each binder: values may come before it.
How the values were obtained:
Assay in all cases: ELISA
[1] = target: T1, human EphB6 extracellular region-SEAP-His protein (human, UniProt O15197 32-594)
T1 construct: extracellular domain; also called hEphB6-SEAP-His
T1 sequence (looked up): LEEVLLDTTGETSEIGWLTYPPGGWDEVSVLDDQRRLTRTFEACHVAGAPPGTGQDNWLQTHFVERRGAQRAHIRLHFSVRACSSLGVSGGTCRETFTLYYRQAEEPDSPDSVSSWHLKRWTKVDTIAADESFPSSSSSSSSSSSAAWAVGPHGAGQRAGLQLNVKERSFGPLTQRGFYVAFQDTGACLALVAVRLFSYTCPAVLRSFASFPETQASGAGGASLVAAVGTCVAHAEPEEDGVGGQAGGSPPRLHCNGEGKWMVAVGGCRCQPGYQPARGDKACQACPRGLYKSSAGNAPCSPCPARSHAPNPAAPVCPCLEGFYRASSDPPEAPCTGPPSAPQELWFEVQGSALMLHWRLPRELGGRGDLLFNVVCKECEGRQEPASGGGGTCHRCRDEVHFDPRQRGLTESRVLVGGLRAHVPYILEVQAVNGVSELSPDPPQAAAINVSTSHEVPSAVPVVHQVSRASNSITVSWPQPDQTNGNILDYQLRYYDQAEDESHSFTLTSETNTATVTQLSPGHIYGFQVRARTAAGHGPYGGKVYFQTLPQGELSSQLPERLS

[2] = target: T2, human EphA5 extracellular region-SEAP-His protein (human, UniProt P54756 25-573)
T2 construct: extracellular domain; also called hEphA5-SEAP-His

[3] = target: T3, human EphA6 extracellular region-SEAP-His protein (human, UniProt Q9UF33 23-550)
T3 construct: extracellular domain; also called hEphA6-SEAP-His
T3 sequence (looked up): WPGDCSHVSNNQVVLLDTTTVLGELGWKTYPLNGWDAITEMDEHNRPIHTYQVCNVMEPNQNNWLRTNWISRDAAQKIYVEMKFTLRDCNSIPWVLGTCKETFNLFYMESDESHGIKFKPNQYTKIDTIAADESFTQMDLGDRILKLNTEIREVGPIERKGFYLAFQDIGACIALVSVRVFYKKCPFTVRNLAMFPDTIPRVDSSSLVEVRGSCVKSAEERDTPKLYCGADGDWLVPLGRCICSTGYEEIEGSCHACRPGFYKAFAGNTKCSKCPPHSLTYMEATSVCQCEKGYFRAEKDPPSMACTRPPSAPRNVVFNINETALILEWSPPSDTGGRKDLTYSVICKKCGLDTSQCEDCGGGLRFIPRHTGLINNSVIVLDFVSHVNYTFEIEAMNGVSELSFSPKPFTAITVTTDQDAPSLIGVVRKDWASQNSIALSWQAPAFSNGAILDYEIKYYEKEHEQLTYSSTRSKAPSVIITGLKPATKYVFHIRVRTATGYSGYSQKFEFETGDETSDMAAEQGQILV

[4] = target: T4, human EphB2 extracellular region-SEAP-His protein (human, UniProt P29323 19-543)
T4 construct: extracellular domain; also called hEphB2-SEAP-His
T4 sequence (looked up): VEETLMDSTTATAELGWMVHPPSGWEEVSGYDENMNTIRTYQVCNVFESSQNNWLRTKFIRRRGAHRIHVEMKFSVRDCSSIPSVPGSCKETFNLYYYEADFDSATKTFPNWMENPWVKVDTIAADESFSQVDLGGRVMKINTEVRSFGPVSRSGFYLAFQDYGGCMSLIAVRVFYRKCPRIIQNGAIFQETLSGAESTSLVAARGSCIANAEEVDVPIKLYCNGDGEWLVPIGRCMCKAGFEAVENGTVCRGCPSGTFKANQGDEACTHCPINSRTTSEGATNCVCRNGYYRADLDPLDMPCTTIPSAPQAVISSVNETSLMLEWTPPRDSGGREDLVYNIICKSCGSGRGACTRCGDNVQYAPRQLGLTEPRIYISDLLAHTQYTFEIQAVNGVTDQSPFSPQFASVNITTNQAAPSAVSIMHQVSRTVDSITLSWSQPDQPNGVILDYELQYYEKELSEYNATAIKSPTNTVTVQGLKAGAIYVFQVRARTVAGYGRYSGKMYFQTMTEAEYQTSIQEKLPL

[5] = target: T5, human EphB3 extracellular region-SEAP-His protein (human, UniProt P54753 34-559)
T5 construct: extracellular domain; also called hEphB3-SEAP-His
T5 sequence (looked up): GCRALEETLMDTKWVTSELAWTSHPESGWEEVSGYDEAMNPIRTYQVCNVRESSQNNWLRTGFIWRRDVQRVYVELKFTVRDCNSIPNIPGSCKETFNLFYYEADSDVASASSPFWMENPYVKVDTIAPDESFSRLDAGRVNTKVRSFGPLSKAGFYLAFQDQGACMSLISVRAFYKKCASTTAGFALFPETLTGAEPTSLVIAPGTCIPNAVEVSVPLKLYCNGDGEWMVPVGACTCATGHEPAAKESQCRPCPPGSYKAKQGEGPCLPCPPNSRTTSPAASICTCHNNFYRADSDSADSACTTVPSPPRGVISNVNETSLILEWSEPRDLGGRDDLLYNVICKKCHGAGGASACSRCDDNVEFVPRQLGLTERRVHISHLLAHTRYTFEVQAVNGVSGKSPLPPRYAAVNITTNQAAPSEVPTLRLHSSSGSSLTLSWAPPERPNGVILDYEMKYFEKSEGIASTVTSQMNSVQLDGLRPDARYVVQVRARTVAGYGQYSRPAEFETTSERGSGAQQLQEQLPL

T2 sequence (P54756 25-573): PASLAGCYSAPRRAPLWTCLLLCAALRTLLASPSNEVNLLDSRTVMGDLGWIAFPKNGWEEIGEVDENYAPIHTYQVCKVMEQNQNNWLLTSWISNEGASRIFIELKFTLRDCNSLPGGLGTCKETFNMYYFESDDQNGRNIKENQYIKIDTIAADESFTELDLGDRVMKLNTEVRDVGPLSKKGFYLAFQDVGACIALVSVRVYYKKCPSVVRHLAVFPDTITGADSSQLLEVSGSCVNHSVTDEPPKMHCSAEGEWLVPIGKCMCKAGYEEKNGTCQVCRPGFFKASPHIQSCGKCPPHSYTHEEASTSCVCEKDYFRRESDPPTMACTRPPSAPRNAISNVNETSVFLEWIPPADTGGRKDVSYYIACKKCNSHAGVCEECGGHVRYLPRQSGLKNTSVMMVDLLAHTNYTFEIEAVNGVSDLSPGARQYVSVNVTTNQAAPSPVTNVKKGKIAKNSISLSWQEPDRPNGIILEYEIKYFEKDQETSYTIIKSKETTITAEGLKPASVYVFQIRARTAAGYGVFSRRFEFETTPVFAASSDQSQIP

B1: humanized antibody No. 85 (antibody, human IgG1, kappa)
heavy: QVQLVQSGSELKKPGASVKVSCKASGYTFTDYSMHWVRQAPGQGLKWMGWINTETGEPTYADDFKGRFVFSLDTSVSTAYLQISSLKAEDTAVYYCARIPLYYYGSRYWYFDVWGQGTTVTVSSASTKGPSVFPLAPSSKSTSGGTAALGCLVKDYFPEPVTVSWNSGALTSGVHTFPAVLQSSGLYSLSSVVTVPSSSLGTQTYICNVNHKPSNTKVDKRVEPKSCDKTHTCPPCPAPPAAAPSVFLFPPKPKDTLMISRTPEVTCVVVDVSHEDPEVQFNWYVDGVEVHNAKTKPREEQFNSTFRVVSVLTVVHQDWLNGKEYKCKVSNKGLPAPIEKTISKTKGQPREPQVYTLPPSREEMTKNQVSLTCLVKGFYPSDIAVEWESNGQPENNYKTTPPMLDSDGSFFLYSKLTVDKSRWQQGNVFSCSVMHEALHNHYTQKSLSLSPG
light: DIQMTQSPSSLSASVGDRVTITCRASENIYRNLAWYQQKPGKAPKLLLYAATNLADGVPSRFSGSGSGTDYTLTISSLQSEDFATYYCQHFWGTPWTFGQGTKVEIKRTVAAPSVFIFPPSDEQLKSGTASVVCLLNNFYPREAKVQWKVDNALQSGNSQESVTEQDSKDSTYSLSSTLTLSKADYEKHKVYACEVTHQGLSSPVTKSFNRGEC
notes: human Ig kappa; also called L1-5/HK2
A450 as % of hEphA4-SEAP-His [1]: 5.2%
A450 as % of hEphA4-SEAP-His [2]: 5%
A450 as % of hEphA4-SEAP-His [3]: 6.2%
A450 as % of hEphA4-SEAP-His [4]: 5.1%
A450 as % of hEphA4-SEAP-His [5]: 5.2%

B2: humanized antibody No. 138 (antibody, human IgG2)
heavy: QIQLVQSGSELKKPGASVKVSCKASGYTFTDYSMHWVRQAPGQGLKWMGWINTETGEPTYAQGFTGRFVFSLDTSVSTAYLQISSLKAEDTAVYYCARIPLYYYGSRYWYFDVWGQGTTVTVSSASTKGPSVFPLAPSSRSTSESTAALGCLVKDYFPEPVTVSWNSGALTSGVHTFPAVLQSSGLYSLSSVVTVPSSNFGTQTYTCNVDHKPSNTKVDKTVERKSCVECPPCPAPPAAAPSVFLFPPKPKDTLMISRTPEVTCVVVDVSHEDPEVQFNWYVDGVEVHNAKTKPREEQFNSTFRVVSVLTVVHQDWLNGKEYKCKVSNKGLPAPIEKTISKTKGQPREPQVYTLPPSREEMTKNQVSLTCLVKGFYPSDIAVEWESNGQPENNYKTTPPMLDSDGSFFLYSKLTVDKSRWQQGNVFSCSVMHEALHNHYTQKSLSLSPG
light: B1 light with L48V, S80P
notes: human Ig kappa; also called L1-4/HA4
A450 as % of hEphA4-SEAP-His [1]: 5%
A450 as % of hEphA4-SEAP-His [2]: 5.1%
A450 as % of hEphA4-SEAP-His [3]: 10.2%
A450 as % of hEphA4-SEAP-His [4]: 5.2%
A450 as % of hEphA4-SEAP-His [5]: 5.1%

B4: humanized antibody No. 91 (antibody, human IgG1, kappa)
heavy: B1 heavy
light: B1 light with K45Q, S80P
notes: human Ig kappa; also called L1-6/HK2
A450 as % of hEphA4-SEAP-His [1]: 6.3%
A450 as % of hEphA4-SEAP-His [2]: 6.4%
A450 as % of hEphA4-SEAP-His [3]: 8.8%
A450 as % of hEphA4-SEAP-His [4]: 7%
A450 as % of hEphA4-SEAP-His [5]: 7%

B6: humanized antibody No. 87 (antibody, human IgG1, kappa)
heavy: B1 heavy with K46E, D62Q, D63G, K65T
light: B1 light with K45Q, S80P
notes: human Ig kappa; also called L1-6/HA1
A450 as % of hEphA4-SEAP-His [1]: 5.3%
A450 as % of hEphA4-SEAP-His [2]: 5.4%
A450 as % of hEphA4-SEAP-His [3]: 6.4%
A450 as % of hEphA4-SEAP-His [4]: 5.4%
A450 as % of hEphA4-SEAP-His [5]: 5.5%

B7: humanized antibody No. 92 (antibody, human IgG1, kappa)
heavy: B1 heavy with V2I
light: B1 light with K45Q, S80P
notes: human Ig kappa; also called L1-6/HK4
A450 as % of hEphA4-SEAP-His [1]: 6.5%
A450 as % of hEphA4-SEAP-His [2]: 6.8%
A450 as % of hEphA4-SEAP-His [3]: 9.6%
A450 as % of hEphA4-SEAP-His [4]: 6.6%
A450 as % of hEphA4-SEAP-His [5]: 6.9%

Further lines, results first:

A450 as % of hEphA4-SEAP-His [1]: 4.8%
A450 as % of hEphA4-SEAP-His [2]: 5.8%
A450 as % of hEphA4-SEAP-His [3]: 8.4%
A450 as % of hEphA4-SEAP-His [4]: 5.7%
A450 as % of hEphA4-SEAP-His [5]: 5.7%
B3: humanized antibody No. 89 (antibody, human IgG1, kappa)
heavy: B1 heavy with V2I, D62Q, D63G, K65T
light: B1 light with K45Q, S80P
notes: human Ig kappa; also called L1-6/HA4

A450 as % of hEphA4-SEAP-His [1]: 6.1%
A450 as % of hEphA4-SEAP-His [2]: 5.9%
A450 as % of hEphA4-SEAP-His [3]: 7.5%
A450 as % of hEphA4-SEAP-His [4]: 6%
A450 as % of hEphA4-SEAP-His [5]: 6.3%
B5: humanized antibody No. 88 (antibody, human IgG1, kappa)
heavy: B1 heavy with D62Q, D63G, K65T
light: B1 light with K45Q, S80P
notes: human Ig kappa; also called L1-6/HA2

From US20190077860A1 (EISAI R AND D MANAGEMENT, published 2019)
